# Data published in doi:10.1101/317909.
# Molecular target: T1, ZC3H12B PIN-ZnF fragment (human, UniProt Q5HYM0 179-397)
# T1 sequence: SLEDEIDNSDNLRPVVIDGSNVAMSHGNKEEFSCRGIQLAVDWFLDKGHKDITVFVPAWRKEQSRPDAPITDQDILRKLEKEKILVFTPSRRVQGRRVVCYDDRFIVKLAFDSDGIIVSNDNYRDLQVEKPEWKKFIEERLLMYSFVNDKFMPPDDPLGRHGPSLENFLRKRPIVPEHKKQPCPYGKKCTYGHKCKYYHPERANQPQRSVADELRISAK
# Test: X-ray crystallography
binder,measurement,value
"AAUGCGACAGUCGGUAGCAUC (ssRNA, phosphorothioate bond between nt 1 and 2 (5' end)) [21-nt HTR-SELEX-enriched RNA]",binding result,binds
